Results on one substance are retold here after article doi:10.1101/2020.09.10.281741.

The target of test [1] is His6-HMW1ct (C-terminal region of the HMW1A adhesin of H. influenzae, non-glycosylated) (H. influenzae). As to the kind of experiment: SPR.
The target in test [2] is Glc-HMW1ct (glycosylated HMW1ct, mixture of 7,8,9,10-Glc glycoforms) (H. influenzae). Briefly: SPR. (In SPR one partner is held on a chip, and binding of the other changes the refractive index at the surface.)

On to “ApNGT-His6 (N-glycosyltransferase from Actinobacillus pleuropneumoniae) (from UniProt A3N2T3 1-620) (enzyme)”, for which the Kd – broadly, the concentration at which binding is half-saturated – in test [1] turned out to be 5.85 µM; in test [2], 9.81 µM.
